Residue numbers refer to the chain shown, from its start. Names and notes keep the numbering of the source. Values belong to the binder of their own block, whether it stands above or below them.
Experiments:
[1] = target: human telomeric nucleosome core particle (teloNCP), P68431;P62805;P04908;P06899; assay: EMSA; settings: chain shown with the change, triplicate; for response: read off a plot; for EC50: titration 0, 23, 36, 55, 85, 130, 200 nM TRF1core against teloNCP
TRF1 (human), P54274 = target: T1, TRF1 (human), P54274; assay: native MS; purified TRF1core (co-expressed in Sf9, co-purified through MBP on TIN2) at 20 uM, dialysed into 750 mM ammonium acetate pH 8.0, 1 mM DTT; settings: remark: other sources report otherwise
T1 chain: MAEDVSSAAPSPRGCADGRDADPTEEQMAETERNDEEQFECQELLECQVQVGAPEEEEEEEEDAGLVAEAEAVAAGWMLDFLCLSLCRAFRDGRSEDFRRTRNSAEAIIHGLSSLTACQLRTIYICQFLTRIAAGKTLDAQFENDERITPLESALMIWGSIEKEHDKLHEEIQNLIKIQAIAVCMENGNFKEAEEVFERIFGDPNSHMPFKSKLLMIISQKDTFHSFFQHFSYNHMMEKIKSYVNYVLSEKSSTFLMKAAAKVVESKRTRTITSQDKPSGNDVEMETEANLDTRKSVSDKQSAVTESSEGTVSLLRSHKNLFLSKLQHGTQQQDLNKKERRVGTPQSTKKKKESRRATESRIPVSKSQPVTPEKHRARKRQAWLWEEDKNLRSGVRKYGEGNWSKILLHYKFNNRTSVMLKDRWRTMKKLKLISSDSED

[2] = point at 55 nM TRF1core, parent: est. 79

- response [1, 2]: 91 % Bound
- EC50 [1]: 30.3 nM
B1: wild-type MBP-tagged TRF1core (TRF1-TIN2-TPP1), P54274;Q9BSI4 S434D; S435D; S437D (protein)
chain 1: T1 chain with S434D, S435D, S437D
chain 2: MATPLVAGPAALRFAAAASWQVVRGRCVEHFPRVLEFLRSLRAVAPGLVRYRHHERLCMGLKAKVVVELILQGRPWAQVLKALNHHFPESGPIVRDPKATKQDLRKILEAQETFYQQVKQLSEAPVDLASKLQELEQEYGEPFLAAMEKLLFEYLCQLEKALPTPQAQQLQDVLSWMQPGVSITSSLAWRQYGVDMGWLLPECSVTDSVNLAEPMEQNPPQQQRLALHNPLPKAKPGTHLPQGPSSRTHPEPLAGRHFNLAPLGRRRVQSQWASTRGGHKERPTVMLFPFRNLGSPTQVISKPESKEEHAIYTADLAMGTRAASTGKSKSPCQTLGGRALKENPVDLPATEQKENCLDCYMDPLRLSLLPPRARKPVCPPSLCSSVITIGDLVLDSDEEENGQGEGKESLENYQKTKFDTLIPTLCEYLPPSGHGAIPVSSCDCRDSSRPL
chain 3: MAGSGRLVLRPWIRELILGSETPSSPRAGQLLEVLQDAEAAVAGPSHAPDTSDVGATLLVSDGTHSVRCLVTREALDTSDWEEKEFGFRGTEGRLLLLQDCGVHVQVAEGGAPAEFYLQVDRFSLLPTEQPRLRVPGCNQDLDVQKKLYDCLEEHLSESTSSNAGLSLSQLLDEMREDQEHQGALVCLAESCLTLEGPCTAPPVTHWAASRCKATGEAVYTVPSSMLCISENDQLILSSLGPCQRTQGPELPPPDPALQDLSLTLIASPPSSPSSSGTPALPGHMSSEESGTSISLLPALSLAAPDPGQRSSSQPSPAICSAPATLTPRSPHASRTPSSPLQSCTPSLSPRSHVPSPHQALVTRPQKPSLEFKEFVGLPCKNRPPFPRTGATRGAQEPCSVWEPPKRHRDGSAFQYEYEPPCTSLCARVQAVRLPPQLMAWALHFLMDAQPGSEPTPM

- stoichiometry N (TRF1 (human), P54274): 2
B2: TRF1, P54274 1-439 (natural protein)
chain: T1 chain
modifications: here or on the partner: phosphoserine at 434, 435 and 437 (likely by endogenous insect cell kinases; S435 phosphorylated in 87.3% of the identified peptides); phosphoserine at 434, 435 and 437 (likely by endogenous insect cell kinases; S435 phosphorylated in 87.3% of the identified peptides)

- response [1, 2]: 68 % Bound
- response ([1]; point at 200 nM TRF1core, parent: est. 100): 97 % Bound
- EC50 [1]: 42.4 nM
B3: wild-type MBP-tagged TRF1core (TRF1-TIN2-TPP1), P54274;Q9BSI4 L384A; W385A; K389A (protein)
chain 1: AEDVSSAAPSPRGCADGRDADPTEEQMAETERNDEEQFECQELLECQVQVGAPEEEEEEEEDAGLVAEAEAVAAGWMLDFLCLSLCRAFRDGRSEDFRRTRNSAEAIIHGLSSLTACQLRTIYICQFLTRIAAGKTLDAQFENDERITPLESALMIWGSIEKEHDKLHEEIQNLIKIQAIAVCMENGNFKEAEEVFERIFGDPNSHMPFKSKLLMIISQKDTFHSFFQHFSYNHMMEKIKSYVNYVLSEKSSTFLMKAAAKVVESKRTRTITSQDKPSGNDVEMETEANLDTRKSVSDKQSAVTESSEGTVSLLRSHKNLFLSKLQHGTQQQDLNKKERRVGTPQSTKKKKESRRATESRIPVSKSQPVTPEKHRARKRQAWAAEEDANLRSGVRKYGEGNWSKILLHYKFNNRTSVMLKDRWRTMKKLKLISSDSED
chain 2: B1 chain 2
chain 3: B1 chain 3

From article PMC10456876
